Laboratory results as given in PMC11707192 (Nature Communications, 2025).

T1: UHRF1 TTD-PHD (deletion 167-175) (human, UniProt Q96T88 134-366, deletion 167-175)
T1 sequence (looked up): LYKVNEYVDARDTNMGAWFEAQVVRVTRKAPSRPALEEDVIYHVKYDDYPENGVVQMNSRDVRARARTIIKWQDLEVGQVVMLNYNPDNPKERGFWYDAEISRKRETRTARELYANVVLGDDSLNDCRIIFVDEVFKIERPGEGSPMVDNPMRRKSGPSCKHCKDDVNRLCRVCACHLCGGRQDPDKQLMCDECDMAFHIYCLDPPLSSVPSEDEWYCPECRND

B1: UHRF1 TTD-PHD (134-366) (domain or fragment, human, UniProt Q96T88 134-366, looked up)
chain: LYKVNEYVDARDTNMGAWFEAQVVRVTRKAPSRDEPCSSTSRPALEEDVIYHVKYDDYPENGVVQMNSRDVRARARTIIKWQDLEVGQVVMLNYNPDNPKERGFWYDAEISRKRETRTARELYANVVLGDDSLNDCRIIFVDEVFKIERPGEGSPMVDNPMRRKSGPSCKHCKDDVNRLCRVCACHLCGGRQDPDKQLMCDECDMAFHIYCLDPPLSSVPSEDEWYCPECRND
B2: UHRF1 PHD domain (298-367) (domain or fragment, human, UniProt Q96T88 298-367, looked up)
chain: SGPSCKHCKDDVNRLCRVCACHLCGGRQDPDKQLMCDECDMAFHIYCLDPPLSSVPSEDEWYCPECRNDA
B3: mSTE-1 (peptide of the mSTELLA Swap1 region, residues 80-119) (peptide, UniProt Q8QZY3 80-119, looked up)
peptide: QSAFPKRRVRTLLSVLKDPIAKMRRLVRIEQRQKRLEGNE
B4: hSTE-1 (peptide of the hSTELLA Swap1 region, residues 75-121) (peptide, UniProt Q6W0C5 75-121, looked up)
peptide: EDEWLYSRRGVRTLLSVQREKMARLRYMLLGGVRTHERRPTNKEPKG

What was measured:
[1] = biological target: B2; experiment: ITC
[2] = biological target: T1, UHRF1 TTD-PHD (deletion 167-175); experiment: crystal structure
[3] = biological target: B3; experiment: ITC
[4] = biological target: B4; experiment: ITC
UHRF1 TTD-PHD (134-366) = biological target: B1; experiment: ITC

binding result [2] | Kd [1] [µM] | Kd (UHRF1 TTD-PHD (134-366)) [µM] | Binder | also measured
binds | – | – | KRRVRTLLSVLKDPIAKMRRLVRIEQRQKRLEGNE (peptide, UniProt Q8QZY3 85-119, looked up) [mSTE-2 (truncated peptide within mSTE-1, residue 85-119)] | binding result [1]: binds
– | – | – | B1 | fold more potent affinity than the H3K9me3 tail [3]: > 30 fold; fold weaker affinity than the H3K9me3 tail [4]: 4 fold
– | – | – | B2 | stoichiometry N [3]: 1; stoichiometry N [4]: 1
– | 0.0912 | 0.00584 | B3 | –
binds | 0.818 | 0.786 | B4 | –
